Data from patent US8138140B2, “Self-assembling peptide amphiphiles and related methods for growth factor delivery” (Northwestern University, priority 2003, dated 2012).
Ends that are not written are not given here. Peptide text beside a SMILES is read from it. * marks the point of attachment. Palmitoyl = CCCCCCCCCCCCCCCC(=O)*; NH(CH2)11CH3 = CCCCCCCCCCCCN*

Molecular target: T1, rh-BMP-2 (Homo sapiens, UniProt P12643)
T1 construct: purchased Peprotech
T1 sequence (P12643 283-396): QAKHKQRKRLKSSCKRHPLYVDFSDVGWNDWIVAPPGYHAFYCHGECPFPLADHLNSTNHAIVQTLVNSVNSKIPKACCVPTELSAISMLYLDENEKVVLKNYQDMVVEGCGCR
Test: ELISA screening of phage display clones, relative binding strengths
Set-up: key to relative binding strength of selected clone (numeric coding): highest (1); 2: in decreasing binding strength from highest (1) to lowest (4); 3: in decreasing binding strength from highest (1) to lowest (4); lowest (4)
Details: BMP-2 coated plates, ELISA
Excerpt: (§1) Phage display is typically used to find receptor-blocking peptides, i.e. sequences with high binding constants. To transfer a growth factor from the PA binding site to the cell receptor, an extremely high binding constant is not required and might even be unfavorable. Therefore, the 7-mer commercial phage library was elected over the […], aiming at intermediate binding strengths. Growth factors were physisorbed onto 96-well plates and subsequently exposed to the phage library. After incubation at room temperature for 60 minutes, the unbound phage was removed by rinsing with detergent solution. Bound phage was subsequently eluted by incubating with a growth factor solution for 60 minutes. The recovered phages were amplified for 4 h in E Coli at 37° C. and the panning was repeated two more times. In subsequent panning rounds, the stringency was increased by raising the detergent concentration and reducing the exposure time to the library. The final phage population was plated and the DNA of 10 clones of colonies containing only one phage type were sequenced. Next, ELISA screening was used to test for false positives and determine relative binding strengths of the selected clones. […] (See Table 1, below.)
(§2) Phage display was performed with the Ph.D. 7 kit (New England […]). Fifty microliters of diluted M13-phage library (containing 2×10^9 phages and all possible 7-mer sequences) were added to 96-well microtiter plates, which had been exposed to 50 μl 10 μg/ml growth factor (peprotech) solution for 18 h at 0° C. The plates were blocked for 1 h then incubated at room temperature for 60 minutes with gentle agitation. Unbound phage was removed by rinsing with TBS/Tween-20 (0.1% v/v Tween-20). Bound phage was subsequently eluted by incubating with 50 μl growth factor solution for 60 minutes. The presence of binding phage was determined by serial dilution of the phages and subsequent plating with E. Coli on agar plates. The number of plaques formed can be related to the number of phages in the original mixture. The phages were subsequently amplified for 4 h in E. Coli at 37° C. In subsequent panning rounds, the concentration of Tween-20 was raised to 0.5% and the binding and elution times were decreased and increased, respectively, to increase the stringency of the selection process. After three rounds of panning, the recovered phage mixture is diluted and plated with bacteria on agar. Subsequently, plaques are isolated containing a single DNA sequence. After purification, ten clones were sequenced. Next, ELISA screening was used to eliminate false positives and determine relative binding strengths of the selected clones. Each clone was incubated for 1 h on growth factor coated microtiter plates, the plates were rinsed with TBS/Tween-20 and subsequently HRP-conjugated anti-M13 antibody (Amersham Biosciences) was incubated for 1 h. After addition of ABTS, the absorbance at 450 nm was measured after 30 minutes to determine the relative binding strengths of the isolated clones. The strongest binder was subsequently selected.

Compound | relative binding strength of selected clone (numeric coding)
YPVHPST | YPVHPST (1)
PIQPDER | PIQPDER (2)
DVSPAYH | DVSPAYH (3)
PFDPPVR | PFDPPVR (2)
LHYPFMT | LHYPFMT (3)

Second part, the compound after the results:

relative binding strength of selected clone (numeric coding) | Compound
QQTQAQH (4) | QQTQAQH
PGPTVQG (2) | PGPTVQG
KVPPANT (3) | KVPPANT
KQALTQT (3) | KQALTQT
WPALFTH (3) | WPALFTH

Same assay, conditions: phage display and ELISA screening

Compound | binding to BMP-2 (in words)
YPVHPST | best binding epitope

Molecular target: T2, rh-TGF-β1 (Homo sapiens, UniProt P01137)
T2 construct: purchased Peprotech
Test: as above
Set-up: key to relative binding strength of selected clone (numeric coding): highest (1); 2: in decreasing binding strength from highest (1) to lowest (4); 3: in decreasing binding strength from highest (1) to lowest (4); lowest (4)
Details: TGF-β1 coated plates, ELISA
Excerpt: as §1, §2

T2 sequence (P01137 279-390 limits assumed): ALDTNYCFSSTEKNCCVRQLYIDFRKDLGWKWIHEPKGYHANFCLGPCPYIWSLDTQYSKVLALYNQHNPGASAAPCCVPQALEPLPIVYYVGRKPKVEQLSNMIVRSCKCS

Compound | relative binding strength of selected clone (numeric coding)
PAPRWIH | PAPRWIH (3)
LPSPIQK | LPSPIQK (2)
LPLGNSH | LPLGNSH (1)
VYRHLPT | VYRHLPT (2)
GKYPPTS | GKYPPTS (3)

The remaining lines, values ahead:

relative binding strength of selected clone (numeric coding) | Compound
RTTSPTA (3) | RTTSPTA
LRNYSHS (3) | LRNYSHS
AWKSVTA (3) | AWKSVTA
RVSTWDT (3) | RVSTWDT

Same assay, conditions: phage display and ELISA screening

Compound | binding to TGF-β1 (in words)
LPLGNSH | best binding epitope

Tested on: vascular endothelial growth factor (VEGF)
Test: Phage display binding sequences (12-mer kit)
Set-up: key: * denotes the strongest binders
Details: 12-mer phage display kit
Experimental: (§3) Numerous binding sequences were determined for vascular endothelial growth factor (VEGF), both with 7- and 12-mer phage display kit, basic fibroblast growth factor (FGF-2), neurotrophin-3 (NT-3) and laminin-5; * denotes the strongest binders: […]

Compound | strongest binders
PTPLKVRLHSYN | PTPLKVRLHSYN*
VSILSTIPNSMT | VSILSTIPNSMT*
PLTPSALLPIFE | PLTPSALLPIFE*

Tested on: laminin-5
Test: Phage display binding sequences
Set-up: key: * denotes the strongest binders
Details: not given
Experimental: as §3

Compound | strongest binders
RYHPHLH | RYHPHLH*

Tested on: mesenchymal stem cells
Test: Mesenchymal stem cells cultured in PA gels with TGF-β1, lineage markers
Type: cell-based, Human
Details: TGF-β1 up to 20 ng/ml, 10 days

Compound | Collagen II expression | α-smooth muscle actin expression
Asp(CONHC12)-Val-Val-Val-Ala-Ala-Ala-Lys-Lys-Lys-Ser-Gly-Gly-G-ly-Leu-Pro-Leu-Gly-Gln-Ser-His-NH2 [PA 10] | higher for the binding gels | higher in the binding gels than in the nonbinding gels

Tested on: not listed separately
Test: Acid-base (pKa) titrations of PA aggregates
Details: 3 mM, aggregated state
Experimental: Acid-Base titrations. pKa titrations were preformed on PAs 1-4 in the range of pH 2-10 with a Fisher Accumet pH meter at a concentration of 3.5 mg/mL in 100 mM KCl. For the acidic PAs 2 and 4, 0.1N KOH was added in 1-5 μL increments, starting at low pH, whereas for the basic PAs 1 and 3, 0.1N HCl was added in 1-5 μL increments, starting at a high pH.
pKa titrations of aggregates of molecules 1-4 were carried out at a concentration of 3 mM. All titrations were started at a pH where the molecules were already in their aggregated state in order to avoid kinetic effects due to self-assembly.

Compound | apparent pKa of aggregates (titration curve)
Asp(CONHC12)-Val-Val-Val-Ala-Ala-Ala-Glu-Glu-Glu-NH2 (D(NH(CH2)11CH3)VVVAAAEEE-NH2; N-terminus assumed; SMILES CCCCCCCCCCCCNC(=O)C[C@H](N)C(=O)N[C@H](C(=O)N[C@H](C(=O)N[C@H](C(=O)N[C@@H](C)C(=O)N[C@@H](C)C(=O)N[C@@H](C)C(=O)N[C@@H](CCC(=O)O)C(=O)N[C@@H](CCC(=O)O)C(=O)N[C@@H](CCC(=O)O)C(N)=O)C(C)C)C(C)C)C(C)C) [PA 4] | complex curves with transitions occurring over wide ranges
CCCCCCCCCCCCCCCC(=O)N[C@H](C(=O)N[C@H](C(=O)N[C@H](C(=O)N[C@@H](C)C(=O)N[C@@H](C)C(=O)N[C@@H](C)C(=O)N[C@@H](CCC(=O)O)C(=O)N[C@@H](CCC(=O)O)C(=O)N[C@@H](CCC(=O)O)C(=O)O)C(C)C)C(C)C)C(C)C [PA 2] (Palmitoyl-VVVAAAEEE-OH) | complex curves with transitions occurring over wide ranges
